± gives the uncertainty stated by the source.
Assay: self-splicing fitness, log relative to wild type (ln ratio); higher = more splicing; Tetrahymena group I intron in knt gene, E. coli kanamycin selection, DiMSum; sequences stand for … in CUCUCU…GGAGGGAAAAGUUAUCAGGCAUGCACCUGGUAGCUAGUCUUUAAACCAAUAGAUUGCAUCGGUUUAAAAGGCAAGACCGUCAAAUUGCGGGAAAGGGGUCAACAGCCGUUCAGUACCAAGUCUCAGGGGAAACUUUGAGAUGGCCUUGCAAAGGGUAUGGUAAUAAGCUGACGGACAUGGUCCUAACCACGCAGCCAAGUCCUAAGUCAACAGAUCUUCUGUUGAUAUGGAUGCAGUUCACAGACUAAAUGUCGGUCGGGGAAGAUGUAUUCUUCUCAUAAGAUAUAGUCGGACCUCUCCUUAAUGGGAGCUAGCGGAUGAAGUGAUGCAACACUGGAGCCGCUGGGAACUAAUUUGUAUGCGAAAGUAUAUUGAUUAGUUUUGGAGUACUCGUGGUCG
How it was run: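 A randomised library covering all eight P1ex-region intron nucleotides was built with the intron in the knt kanamycin-resistance gene on pET-22b(+) and held in E. coli BL21(DE3). Cells were grown overnight at 37°C or 30°C on LB agar, with or without 25 μg/mL kanamycin, plus 100 μg/mL carbenicillin, 50 μM IPTG and 0.2% rhamnose, and pooled colonies were amplicon-sequenced on an Illumina HiSeq 2500. DiMSum fitness is the error-weighted combination of wild-type-normalised replicate fold changes, kanamycin versus none.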

Sequence	self-splicing fitness (ln) (30 °C)	self-splicing fitness (ln) (37 °C)
UCCAAGCAAUAUUACGCCAA	-2.68 ± 0.21	-0.487 ± 0.22
UCCAAGCAAUAUUACGCCGG	-1.53 ± 0.11	-0.578 ± 0.14
UCCAAGCAAUAUUACGCGCA	0.131 ± 0.064	0.306 ± 0.079
UCCAAGCAAUAUUACGCGCU	-2.67 ± 0.21	-1.52 ± 0.23
UCCAAGCAAUAUUACGGAUA	-2.57 ± 0.13	-1.22 ± 0.089
UCCAAGCAAUAUUACGGGAG	-2.57 ± 0.16	-2.9 ± 0.35
UCCAAGCAAUAUUACGGUCG	-2.37 ± 0.097	-0.886 ± 0.099
UCCAAGCAAUAUUACGUAAC	-3.57 ± 0.17	-1.41 ± 0.15
UCCAAGCAAUAUUACGUACA	-0.123 ± 0.1	-0.835 ± 0.12
UCCAAGCAAUAUUACGUUAA	-2.37 ± 0.12	-0.463 ± 0.1
UCCCAGCAAUAUUACGACUC	-3.89 ± 0.25	-1.91 ± 0.24
UCCCAGCAAUAUUACGAGCC	-2.16 ± 0.28	-1.96 ± 0.31
UCCCAGCAAUAUUACGAUAA	-2.32 ± 0.12	-1.85 ± 0.14
UCCCAGCAAUAUUACGAUUU	-3.49 ± 0.11	-1.52 ± 0.097
UCCCAGCAAUAUUACGCAUA	-1.47 ± 0.16	-1.27 ± 0.15
UCCCAGCAAUAUUACGCCUU	-3.44 ± 0.2	-1.28 ± 0.15
UCCCAGCAAUAUUACGCGGA	-2.72 ± 0.17	-1.12 ± 0.12
UCCCAGCAAUAUUACGCUAA	-1.75 ± 0.11	-0.958 ± 0.091
UCCCAGCAAUAUUACGCUGC	-3.59 ± 0.24	-2.75 ± 0.34
UCCCAGCAAUAUUACGGACC	-3.42 ± 0.27	0.0123 ± 0.17
UCCCAGCAAUAUUACGGAUG	-3.49 ± 0.2	-1.31 ± 0.15
UCCCAGCAAUAUUACGGAUU	-2.66 ± 0.092	-0.582 ± 0.08
UCCCAGCAAUAUUACGGCGC	-1.67 ± 0.091	-0.401 ± 0.14
UCCCAGCAAUAUUACGGCUG	–	-1.42 ± 0.48
UCCCAGCAAUAUUACGGGAC	-2.69 ± 0.17	-2.49 ± 0.3

Sequence	self-splicing fitness (ln) (30 °C)	self-splicing fitness (ln) (37 °C)
UCCCAGCAAUAUUACGUAAA	-0.605 ± 0.065	0.00983 ± 0.085
UCCCAGCAAUAUUACGUACC	–	0.327 ± 0.33
UCCCAGCAAUAUUACGUAGA	-0.0439 ± 0.054	0.435 ± 0.073
UCCCAGCAAUAUUACGUAGC	-2.68 ± 0.12	-2.19 ± 0.16
UCCCAGCAAUAUUACGUCAU	-4.04 ± 0.2	-2.09 ± 0.18
UCCCAGCAAUAUUACGUCCC	-3.08 ± 0.25	-0.845 ± 0.26
UCCCAGCAAUAUUACGUCGU	-1.69 ± 0.085	-0.682 ± 0.11
UCCCAGCAAUAUUACGUCUG	-3.05 ± 0.17	-2.85 ± 0.31
UCCCAGCAAUAUUACGUUCU	-3.47 ± 0.21	-2.5 ± 0.22
UCCCAGCAAUAUUACGUUGG	-3.37 ± 0.12	-1.5 ± 0.13
UCCCAGCAAUAUUACGUUGU	-4.06 ± 0.15	-1.97 ± 0.11
UCCCAGCAAUAUUACGUUUA	-2.21 ± 0.12	-1.79 ± 0.13
UCCGAGCAAUAUUACGAAAG	-3.3 ± 0.33	-2.65 ± 0.32
UCCGAGCAAUAUUACGAAUA	-2.95 ± 0.25	–
UCCGAGCAAUAUUACGAAUU	-3.49 ± 0.28	-2.19 ± 0.35
UCCGAGCAAUAUUACGACAA	-2.23 ± 0.46	–
UCCGAGCAAUAUUACGACUA	-2.51 ± 0.28	-2.21 ± 0.27
UCCGAGCAAUAUUACGACUG	-2.56 ± 0.34	-1.76 ± 0.37
UCCGAGCAAUAUUACGAGGU	-3.89 ± 0.34	–
UCCGAGCAAUAUUACGAGUU	-2.64 ± 0.2	–
UCCGAGCAAUAUUACGAUAC	-4.73 ± 0.46	-2.96 ± 0.35
UCCGAGCAAUAUUACGAUUG	-3.7 ± 0.28	-1.77 ± 0.28
UCCGAGCAAUAUUACGCCUA	-2.13 ± 0.2	-2.6 ± 0.36
UCCGAGCAAUAUUACGCCUG	-2.12 ± 0.36	-1.84 ± 0.31
UCCGAGCAAUAUUACGGAAU	-1.91 ± 0.14	-1.77 ± 0.2

Sequence	self-splicing fitness (ln) (30 °C)	self-splicing fitness (ln) (37 °C)
UCCGAGCAAUAUUACGGACU	-3.56 ± 0.21	-2.02 ± 0.14
UCCGAGCAAUAUUACGGCGG	-2.11 ± 0.14	-2.2 ± 0.15
UCCGAGCAAUAUUACGGCUA	-0.436 ± 0.096	-0.18 ± 0.1
UCCGAGCAAUAUUACGGGCG	-3.47 ± 0.35	-1.68 ± 0.36
UCCGAGCAAUAUUACGGUAU	-1.95 ± 0.15	-2.41 ± 0.23
UCCGAGCAAUAUUACGGUUA	-0.525 ± 0.058	-0.174 ± 0.063
UCCGAGCAAUAUUACGUAUA	-3.79 ± 0.29	-2.54 ± 0.24
UCCGAGCAAUAUUACGUCGC	-3.15 ± 0.28	-1.24 ± 0.3
UCCGAGCAAUAUUACGUCUG	-3.5 ± 0.24	–
UCCUAGCAAUAUUACGAACU	-2.54 ± 0.19	-1.6 ± 0.23
UCCUAGCAAUAUUACGACUA	-1.23 ± 0.38	-2.73 ± 0.41
UCCUAGCAAUAUUACGAGCU	-3.57 ± 0.37	-1.99 ± 0.38
UCCUAGCAAUAUUACGAGUG	-2.1 ± 0.1	-0.96 ± 0.1
UCCUAGCAAUAUUACGCACA	-2.29 ± 0.22	-1.45 ± 0.21
UCCUAGCAAUAUUACGCCAG	-3.13 ± 0.26	-2.68 ± 0.26
UCCUAGCAAUAUUACGCCAU	-2.5 ± 0.3	-0.725 ± 0.35
UCCUAGCAAUAUUACGCCCG	–	-2.38 ± 0.42
UCCUAGCAAUAUUACGCCGG	–	-1.88 ± 0.3
UCCUAGCAAUAUUACGCGCC	-2.63 ± 0.17	-2.29 ± 0.24
UCCUAGCAAUAUUACGCGGU	-2.34 ± 0.17	-1.63 ± 0.18
UCCUAGCAAUAUUACGCGUG	-4.1 ± 0.15	-2.75 ± 0.12
UCCUAGCAAUAUUACGGAUG	-4.25 ± 0.34	-2.67 ± 0.2
UCCUAGCAAUAUUACGGGAA	-1.84 ± 0.21	-1.76 ± 0.14
UCCUAGCAAUAUUACGGGAG	-2.27 ± 0.25	-2.37 ± 0.35
UCCUAGCAAUAUUACGGGCU	-2.12 ± 0.1	-1.74 ± 0.13

Sequence	self-splicing fitness (ln) (30 °C)	self-splicing fitness (ln) (37 °C)
UCCUAGCAAUAUUACGGGUA	-0.468 ± 0.088	-0.134 ± 0.12
UCCUAGCAAUAUUACGGGUU	-2.26 ± 0.13	-1.78 ± 0.15
UCCUAGCAAUAUUACGGUCA	-0.978 ± 0.079	-0.106 ± 0.089
UCCUAGCAAUAUUACGGUGC	-2.74 ± 0.17	-2.36 ± 0.18
UCCUAGCAAUAUUACGUAAU	-2.99 ± 0.15	-2.37 ± 0.18
UCCUAGCAAUAUUACGUCCU	-3.56 ± 0.15	-1.92 ± 0.14
UCCUAGCAAUAUUACGUUAA	-3.69 ± 0.28	-2.32 ± 0.26
UCCUAGCAAUAUUACGUUAG	-3.49 ± 0.2	-1.92 ± 0.23
UCGAAGCAAUAUUACGAAGA	-2.08 ± 0.25	-0.685 ± 0.19
UCGAAGCAAUAUUACGAAUG	-2.95 ± 0.17	-1.84 ± 0.19
UCGAAGCAAUAUUACGAUUC	-4.04 ± 0.39	-1.74 ± 0.26
UCGAAGCAAUAUUACGCAAA	–	-3.16 ± 0.4
UCGAAGCAAUAUUACGCCCC	-1.87 ± 0.44	–
UCGAAGCAAUAUUACGCGAA	-2.42 ± 0.17	-0.19 ± 0.13
UCGAAGCAAUAUUACGCGCA	0.425 ± 0.26	-0.635 ± 0.21
UCGAAGCAAUAUUACGCGGU	-2.73 ± 0.3	-2.48 ± 0.36
UCGAAGCAAUAUUACGCGUG	-0.488 ± 0.07	-0.256 ± 0.078
UCGAAGCAAUAUUACGCUAA	–	-2.07 ± 0.36
UCGAAGCAAUAUUACGCUCG	-2.53 ± 0.31	-1.39 ± 0.27
UCGAAGCAAUAUUACGGCCA	-1.64 ± 0.16	0.195 ± 0.14
UCGAAGCAAUAUUACGGGCC	-2.98 ± 0.38	-0.79 ± 0.33
UCGAAGCAAUAUUACGGUCG	-0.668 ± 0.079	0.0856 ± 0.11
UCGAAGCAAUAUUACGGUUC	-4.34 ± 0.34	-2.79 ± 0.32
UCGAAGCAAUAUUACGUAAG	-1.85 ± 0.13	-0.0359 ± 0.13

Reference: the supplement of paper PMC7877785
